Where only a bound is given, the exact number is not on record here.

Results on seven molecules are retold here after US20200352914A1, “METHODS OF TREATING HYPERTENSION WITH ACTIVATORS OF TIE-2” (Aerpio Pharmaceuticals, Inc., priority 2019, published 2020).

Test [1] has as its target HPTPβ (Homo sapiens, UniProt P23467). Briefly: HPTPβ inhibitory activity (IC50). The format is biochemical.
In test [2] the test system is eNOS. The test can be described thus: eNOS and Akt phosphorylation in human endothelial cells (immunoprecipitation, immunoblotting). The class given is cell-based. The method, then: Confluent monolayers of human endothelial cells expressing FLAG-tagged eNOS cultured overnight in MCDB131 containing 0.1% BSA and then incubated with increasing concentrations of Compound 2 (0.3-30 μmol/L) or solvent (DMSO) for 30 minutes. In separate experiments, human endothelial cells were cultured overnight in MCDB131 containing 0.1% BSA and then incubated treated with Compound 2 (30 μmol/L) or solvent for 30 minutes and then stimulated with Yoda1 (1 μmol/L) or solvent for an additional 30 minutes. To inhibit Src, cells were pre-incubated with PP2 (1 μmol/L) for 30 min before incubation with Compound 2 and stimulation with Yoda1. After two washes with cold PBS, cells were collected with the aid of cell scrapers in a lysis buffer containing Tris/HCl pH 7.5 (50 mmol/L), NaCl (150 mmol/L), Triton X-100 (1%), NaPPi (10 mmol/L), NaF (20 mmol/L), orthovanadate (2 mmol/L), okadaic acid (10 nmol/L), β-glycerophosphate (50 mmol/L), phenylmethylsulfonyl fluoride (230 μmol/L), and EDTA-free protease inhibitors mix. The cell mixture was incubated for 30 minutes at 4° C. with vortexing, followed by centrifugation at 13000 rpm for 10 minutes at 4° C. To assess the eNOS-VE-PTP interaction, the following modifications were applied: 1) cells were incubated with the lysis buffer for one hour on an end-over-end rocker at 4° C. and gently vortexed until no cell clumps were observed; 2) lysates were not centrifuged after lysis. FLAG-tagged eNOS was immunoprecipitated using 30 μL of packed Anti-FLAG M2 Affinity Gel per mg protein lysate overnight. The recovered immunoprecipitates were washed three times with the lysis buffer, eluted by boiling samples for 10 minutes in SDS sample buffer, and then analyzed by SDS-PAGE and immunoblotting.
Protein samples were separated by SDS-PAGE and then transferred to […] nitrocellulose membranes. Membranes were incubated overnight with primary antibodies against phospho-Tyr81 eNOS, phospho-Ser1177 eNOS, phospho-Ser633 eNOS, eNOS, phospho-Ser473 Akt, Akt, ABL1, VE-PTP, GAPDH, β-actin, followed by species-specific secondary antibodies anti-IgG conjugated with HRP. Proteins were visualized by enhanced chemiluminescence.
On the technique in general: A western blot detects proteins with antibodies after separation by electrophoresis.

Test [3] relates to Tie-2. Briefly: Tie-2 phosphorylation in hypoxic HUVECs. The format is cell-based, human. The note with it: HUVECs hypoxic 16 h; ANG-1 alone 500 ng/mL. As for the experimental part:
HUVECs cultured under hypoxic conditions for 16 hours were treated with 5 μM Compound 1 for 10 minutes in the presence or absence of ANG-1 or ANG-2 (500 ng/mL). Untreated cells served as controls. The cells were then lysed and Tie-2 was immunoprecipitated and probed with anti-phosphotyrosine (p-Tyr) to indicate Tie-2 activation, or anti-Tie-2 as a loading control.

The test system of test [4] is subjects with DME. The test can be described thus: Sitting systolic blood pressure and pulse rate in subjects with DME, Compound 1 with or without ranibizumab (Example 9, TABLE 27). The class given is in vivo, human. As for the experimental part:
A total of 144 subjects with DME were split into 3 treatment groups. Group 1 received a subcutaneous injection of Compound 1 (15 mg) and a sham intravitreal injection. Group 2 received a subcutaneous injection of Compound 1 (15 mg) and an intravitreal injection of ranibizumab (0.3 mg). Group 3 received a subcutaneous injection of a placebo, and an intravitreal injection of ranibizumab (0.3 mg).
FIG. 19 and TABLE 27 show the effect of Compound 1 treatment, both alone and in combination with ranibizumab, on the sitting systolic blood pressure of subjects.
FIG. 20 compares the effects of Compound 1 treatment, alone (Group 1), or in combination with ranibizumab (Group 2), on subjects with a baseline sitting systolic blood pressure of 140 mmHg or greater, versus those with a baseline sitting systolic blood pressure of less than 140 mmHg. […] The correlation between baseline sitting systolic blood pressure and the change in blood pressure from baseline seen 30 and 90 minutes following specified treatments is shown in FIG. 21 and FIG. 22, respectively.

[5] abbreviates: subjects with DME, Compound 1 15 mg subcutaneous, ranibizumab 0.3 mg intravitreal, 30 minutes post-dose.
The mark [6] stands for this setting: subjects with DME, Compound 1 15 mg subcutaneous, ranibizumab 0.3 mg intravitreal, 90 minutes post-dose.

Chain of HPTPβ (P23467 23-1997): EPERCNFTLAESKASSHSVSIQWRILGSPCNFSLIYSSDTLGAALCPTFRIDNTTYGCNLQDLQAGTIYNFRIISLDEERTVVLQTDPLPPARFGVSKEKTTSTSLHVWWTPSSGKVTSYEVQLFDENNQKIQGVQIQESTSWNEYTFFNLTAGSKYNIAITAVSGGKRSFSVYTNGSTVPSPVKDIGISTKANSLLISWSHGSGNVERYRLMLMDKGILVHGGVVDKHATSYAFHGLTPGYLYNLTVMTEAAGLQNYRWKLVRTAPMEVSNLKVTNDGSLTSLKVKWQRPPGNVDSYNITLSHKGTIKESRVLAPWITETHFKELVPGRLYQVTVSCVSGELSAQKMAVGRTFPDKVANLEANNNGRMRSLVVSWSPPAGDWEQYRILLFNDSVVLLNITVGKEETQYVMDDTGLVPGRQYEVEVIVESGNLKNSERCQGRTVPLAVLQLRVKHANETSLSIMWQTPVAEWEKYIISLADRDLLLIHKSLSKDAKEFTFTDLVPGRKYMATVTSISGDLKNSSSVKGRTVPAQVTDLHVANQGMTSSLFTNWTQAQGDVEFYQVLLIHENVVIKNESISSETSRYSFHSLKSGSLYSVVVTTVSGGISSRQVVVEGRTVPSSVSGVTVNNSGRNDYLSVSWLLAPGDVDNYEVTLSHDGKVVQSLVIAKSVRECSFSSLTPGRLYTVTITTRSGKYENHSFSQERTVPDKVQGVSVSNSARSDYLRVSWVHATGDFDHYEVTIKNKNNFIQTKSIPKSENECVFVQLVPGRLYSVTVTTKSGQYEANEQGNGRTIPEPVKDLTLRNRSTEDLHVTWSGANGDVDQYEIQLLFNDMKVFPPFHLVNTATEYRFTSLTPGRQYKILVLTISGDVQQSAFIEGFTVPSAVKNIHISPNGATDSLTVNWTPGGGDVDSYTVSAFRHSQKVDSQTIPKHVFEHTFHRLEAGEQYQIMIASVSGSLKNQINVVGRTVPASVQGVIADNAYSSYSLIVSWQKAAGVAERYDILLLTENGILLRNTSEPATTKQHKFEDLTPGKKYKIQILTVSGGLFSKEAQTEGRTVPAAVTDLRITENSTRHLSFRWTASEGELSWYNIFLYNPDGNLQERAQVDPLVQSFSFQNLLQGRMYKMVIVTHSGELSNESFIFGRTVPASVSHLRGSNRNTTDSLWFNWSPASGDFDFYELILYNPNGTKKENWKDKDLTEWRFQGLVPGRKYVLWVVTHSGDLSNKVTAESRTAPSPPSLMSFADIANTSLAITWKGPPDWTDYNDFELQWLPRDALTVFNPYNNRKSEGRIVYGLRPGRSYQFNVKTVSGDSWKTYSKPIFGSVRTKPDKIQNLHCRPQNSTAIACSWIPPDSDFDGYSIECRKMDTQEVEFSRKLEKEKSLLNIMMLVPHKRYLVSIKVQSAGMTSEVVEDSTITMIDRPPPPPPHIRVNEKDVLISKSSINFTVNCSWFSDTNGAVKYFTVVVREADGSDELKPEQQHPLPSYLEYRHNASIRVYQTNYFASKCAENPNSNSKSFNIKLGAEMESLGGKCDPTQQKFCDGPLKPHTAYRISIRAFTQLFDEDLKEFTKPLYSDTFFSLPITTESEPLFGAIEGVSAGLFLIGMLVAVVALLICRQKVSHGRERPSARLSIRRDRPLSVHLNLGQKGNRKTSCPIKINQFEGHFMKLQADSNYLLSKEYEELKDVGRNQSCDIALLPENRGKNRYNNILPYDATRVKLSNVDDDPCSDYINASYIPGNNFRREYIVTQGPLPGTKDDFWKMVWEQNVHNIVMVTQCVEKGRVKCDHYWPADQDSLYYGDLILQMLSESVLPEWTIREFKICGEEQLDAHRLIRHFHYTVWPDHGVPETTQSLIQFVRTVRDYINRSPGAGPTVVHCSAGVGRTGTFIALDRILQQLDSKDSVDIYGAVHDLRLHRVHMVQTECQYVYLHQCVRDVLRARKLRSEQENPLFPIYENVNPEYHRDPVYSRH

Broadly, the IC50 is the concentration that inhibits the measured activity by half. A low value points to inhibition by little substance. For `COC(=O)N[C@@H](Cc1ccccc1)C(=O)N[C@@H](Cc1ccc(NS(=O)(=O)O)cc1)c1nc(-c2ccccc2)cs1` [AA21], the IC50 in test [1] was below 0.002 nM.

Take `Clc1cccc(Cl)c1CSc1nnc(-c2cnccn2)s1` [Yoda1, reference compound]: the “phosphorylation of Akt and eNOS” value in test [2] (Yoda1 1 μmol/L, 30 min) was “elicited the phosphorylation of Akt on Ser473, and phosphorylation of eNOS on Ser1177 and Ser633”.

Regarding `CC(C)(C)n1nc(-c2ccc(Cl)cc2)c2c(N)ncnc21` [PP2, reference compound], in test [2] (PP2 1 μmol/L pre-incubation), the “basal and Yoda1-induced tyrosine phosphorylation of eNOS” value was “significantly reduced”.

`CCCc1nc([C@H](Cc2ccc(NS(=O)(=O)O)cc2)NC(=O)OC(C)(C)C)cs1` [AA65]: the IC50 in test [1] was 40 nM.

B1: ANG-1: angiopoietin 1, an agonist of Tie-2 (protein, UniProt Q15389 16-498, looked up)
Angiopoietin-1: HIGCSNQRRSPENSGRRYNRIQHGQCAYTFILPEHDGNCRESTTDQYNTNALQRDAPHVEPDFSSQKLQHLEHVMENYTQWLQKLENYIVENMKSEMAQIQQNAVQNHTATMLEIGTSLLSQTAEQTRKLTDVETQVLNQTSRLEIQLLENSLSTYKLEKQLLQQTNEILKIHEKNSLLEHKILEMEGKHKEELDTLKEEKENLQGLVTRQTYIIQELEKQLNRATTNNSVLQKQQLELMDTVHNLVNLCTKEGVLLKGGKREEEKPFRDCADVYQAGFNKSGIYTIYINNMPEPKKVFCNMDVNGGGWTVIQHREDGSLDFQRGWKEYKMGFGNPSGEYWLGNEFIFAITSQRQYMLRIELMDWEGNRAYSQYDRFHIGNEKQNYRLYLKGHTGTAGKQSSLILHGADFSTKDADNDNCMCKCALMLTGGWWFDACGPSNLNGMFYTAGQNHGKLNGIKWHYFKGPSYSLRSTTMMIRPLDF
Turning to B1, in test [3], the “Tie-2 phosphorylation (p-Tyr)” value is recorded as “did not increase Tie-2 phosphorylation”.

B2: ranibizumab (antibody, chains of the INN, looked up, V domains shown)
VH: EVQLVESGGGLVQPGGSLRLSCAASGYDFTHYGMNWVRQAPGKGLEWVGWINTYTGEPTYAADFKRRFTFSLDTSKSTAYLQMNSLRAEDTAVYYCAKYPYYYGTSHWYFDVWGQGTLVTVSS
VL: DIQLTQSPSSLSASVGDRVTITCSASQDISNYLNWYQQKPGKAPKVLIYFTSSLHSGVPSRFSGSGSGTDFTLTISSLQPEDFATYYCQQYSTVPWTFGQGTKVEIK
modifications: Fab
With B2, in test [4] (baseline sitting SBP 140 mmHg or greater, ranibizumab alone (Group 3)), the blood pressure change result is given as “Minimal change in blood pressure”. The “decrease in sitting systolic blood pressure compared to baseline” value in test [4] (ranibizumab 0.3 mg intravitreal alone (Group 3), 30 and 90 minutes post-dose) is recorded as “not seen”.

B3: Placebo + Ranibizumab (antibody, chains of the INN, looked up, V domains shown)
VH: B2 VH
VL: B2 VL
modifications: Fab with placebo
For the molecule B3, in test [4] (setting [5]), the “Sitting systolic blood pressure, Change from pre-dose to 30 minutes post-dose, Max” value is 31 mmHg; the “Sitting systolic blood pressure, Change from pre-dose to 30 minutes post-dose, Mean (SD)” value is reported as 2.2 (14.32) mmHg; the “Sitting systolic blood pressure, Change from pre-dose to 30 minutes post-dose, Median” value worked out at 1.0 mmHg; the “Sitting systolic blood pressure, Change from pre-dose to 30 minutes post-dose, Min” value is reported as −37 mmHg. In test [4] (setting [6]), the “Sitting systolic blood pressure, Change from pre-dose to 90 minutes post-dose, Max” value was 35 mmHg; the “Sitting systolic blood pressure, Change from pre-dose to 90 minutes post-dose, Mean (SD)” value is recorded as −0.1 (14.46) mmHg; the “Sitting systolic blood pressure, Change from pre-dose to 90 minutes post-dose, Median” value is reported as 2.0 mmHg; the “Sitting systolic blood pressure, Change from pre-dose to 90 minutes post-dose, Min” value was −30 mmHg.
